These results are taken from PMC5105191.

What is called Kd is the equilibrium constant for the complex coming apart. Read a high Kd as a looser complex. For orientation: stoichiometry N means the number of molecules, sites or subunits per partner or assembly.

Assay [1] has as its target FITC–PHC2_(32–61) (human). The experiment in a line: fluorescence polarisation; 20 nM fluorescein-labelled PHC2 32-61 titrated with BMI1 UBL variants or MEL18 UBL; 50 mM bis tris pH 7.5, 50 mM NaCl, 1 mM TCEP, 0.01% BSA, 0.25% tween-20; 1 h incubation.
The target of assay [2] is BMI1_(121–235), BMI1 UBL domain, wild type (UniProt P35226). Put plainly: ITC; VP-ITC, 25 °C, 50 mM phosphate pH 6.5, 50 mM NaCl, 1 mM TCEP; BMI1 121-235 in the cell (22 or 9 μM), titrated with trx-PHC2 1-79 (164 μM) or PHC2 33-56 (100 μM). For orientation: In ITC the heat of successive injections is recorded.
Assay [3] concerns the target FITC–PHC2_(32–61) (human). The experiment in a line: fluorescence polarisation; 20 nM fluorescein-labelled PHC2 32-61 titrated with BMI1 UBL variants or MEL18 UBL; 50 mM bis tris pH 7.5, 50 mM NaCl, 1 mM TCEP, 0.01% BSA, 0.25% tween-20; 1 h incubation. The source holds these as a separate data set. A general note: Polarisation of emitted light reports the rotation of a fluorescent probe.

Like-named read-outs stand apart in the source and are kept apart here.

As to “BMI1 UBL domain F189Q (from UniProt P35226 121-235) (domain or fragment)”, the Kd in assay [1] is 409 nM. The molecule “BMI1 UBL domain H174E (from UniProt P35226 121-235) (domain or fragment)” displayed a Kd in assay [1] of 20100 nM. Still for that read-out and setting: then “BMI1 UBL domain I212E (from UniProt P35226 121-235) (domain or fragment)”, with 1040 nM; and “BMI1 UBL domain M170E (from UniProt P35226 121-235) (domain or fragment)”, with 17000 nM; and “BMI1 UBL domain R165E (from UniProt P35226 121-235) (domain or fragment)”, with 5900 nM. “BMI1 UBL domain R165E/H174E double mutant (from UniProt P35226 121-235) (domain or fragment)”: the Kd in assay [1] was > 50000 nM. In assay [1], “BMI1_(121–235), BMI1 UBL domain, wild type (from UniProt P35226 121-235) (domain or fragment)” returned a Kd of 215 nM. As for PHC2_(33–56) peptide, the Kd in assay [2] amounted to 413 nM. With trx-PHC2_(1–79) (domain or fragment), in assay [2], the Kd was determined as 398 nM and the stoichiometry N was 1.

B1: MEL18_(121-237) fragment, MEL18 UBL domain (domain or fragment)
chain: EKGALSDDEIVSLSIEFYEGARDRDEKKGPLENGDGDKEKTGVRFLRCPAAMTVMHLAKFLRNKMDVPSKYKVEVLYEDEPLKEYYTLMDIAYIYPWRRNGPLPLKYRVQPACKRLT
In assay [3], B1 displayed a Kd of 812 nM.
